From publication PMC8765073 (mAbs, 2022) come the findings set out here.

Sequences and labels used below:
B1: D27LE (antibody, V domains shown)
VH: QVQLQQSGAEVKKPGSSVKVSCKASGGTFGNWSISWVRQAPGQGLEWMGGIDPSRGEATYAQKFQGRVTITTDESTSTAYMELSSLRSEDTAVYYCARETWYTSGGMDVWGQGTTVTVSS
VL: SYELTQPPSVSVAPGKTARITCGGNNIGRKSVHWYQQKPGQAPVLVVYDDSDRPSGIPERFSGSNSGNTATLTISRVEAGDEADYYCQVYDLWSSDYVFGTGTKVEIK
B2: D27LEY (antibody, V domains shown)
VH: QVQLQQSGAEVKKPGSSVKVSCKASGGTFGNWSISWVRQAPGQGLEWMGGIAPGRGEATYAQKFQGRVTITTDESTSTAYMELSSLRSEDTAVYYCARETWYTSGGMDVWGQGTTVTVSS
VL: SYELTQPPSVSVAPGKTARITCGGNNIGRKSVHWYQQKPGQAPVLVVYDDSDRPSGIPERFSGSNSGNTATLTISRVEAGDEADYYCQVYDLWSSDYVFGTGTKVEIK
B3: Y4.2 (D27LEY), scFv (scFv, V domains shown)
VH: QVQLQQSGAEVKKPGSSVKVSCKASGGTFGNWSISWVRQAPGQGLEWMGGIAPGRGEATYAQKFQGRVTITTDESTSTAYMELSSLRSEDTAVYYCARETWYTSGGMDVWGQGTTVTVSS
VL: SYELTQPPSVSVAPGKTARITCGGNNIGRKSVHWYQQKPGQAPVLVVYDDSDRPSGIPERFSGSNSGNTATLTISRVEAGDEADYYCQVYDLWSSDYVFGTGTKVEIK
B4: Y1.10 (scFv, V domains shown)
VH: QVQLQQSGAEVKKPGSSVKVSCKASGGTFGNWTISWVRQAPGQGLEWMGGIGPRQGEATYAQKFQGRVTITTDESTSTAYMELSSLRSEDTAVYYCARETWYTSGGMDVWGQGTTVTVSS
VL: SYELTQPPSVSVAPGKTARITCGGNNIGRKSVHWYQQKPGQAPVLVVYDDSDRPSGIPERFSGSNSGNTATLTISRVEAGDEADYYCQVYDLWSSDYVFGTGTKVEIK
B5: Y6.8 (scFv, V domains shown)
VH: QVQLQQSGAEVKKPGSSVKVSCKASGGTFGNWTISWVRQAPGQGLEWMGGIAPDRGEATYAQKFQGRVTITTDESTSTAYMELSSLRSEDTAVYYCARETWYTSGGMDVWGQGTTVTVSS
VL: SYELTQPPSVSVAPGKTARITCGGNNIGRKSVHWYQQKPGQAPVLVVYDDSDRPSGIPERFSGSNSGNTATLTISRVEAGDEADYYCQVYDLWSSDYVFGTGTKVEIK
B6: Y9.6 (scFv, V domains shown)
VH: QVQLQQSGAEVKKPGSSVKVSCKASGGTFGNWTISWVRQAPGQGLEWMGGIIPTIGEATYAQKFQGRVTITTDESTSTAYMELSSLRSEDTAVYYCARETWYTSGGMDVWGQGTTVTVSS
VL: SYELTQPPSVSVAPGKTARITCGGNNIGRKSVHWYQQKPGQAPVLVVYDDSDRPSGIPERFSGSNSGNTATLTISRVEAGDEADYYCQVYDLWSSDYVFGTGTKVEIK
B7: Y7.10 (scFv, V domains shown)
VH: QVQLQQSGAEVKKPGSSVKVSCKASGGTFGNWTISWVRQAPGQGLEWMGGIIPSRGEATYAQKFQGRVTITTDESTSTAYMELSSLRSEDTAVYYCARETWYTSGGMDVWGQGTTVTVSS
VL: SYELTQPPSVSVAPGKTARITCGGNNIGRKSVHWYQQKPGQAPVLVVYDDSDRPSGIPERFSGSNSGNTATLTISRVEAGDEADYYCQVYDLWSSDYVFGTGTKVEIK
B8: Y9.7 (scFv, V domains shown)
VH: QVQLQQSGAEVKKPGSSVKVSCKASGGTFGNWSISWVRQAPGQGLEWMGGINPSIGEATYAQKFQGRVTITTDESTSTAYMELSSLRSEDTAVYYCARETWYTSGGMDVWGQGTTVTVSS
VL: SYELTQPPSVSVAPGKTARITCGGNNIGRKSVHWYQQKPGQAPVLVVYDDSDRPSGIPERFSGSNSGNTATLTISRVEAGDEADYYCQVYDLWSSDYVFGTGTKVEIK
B9: Y4.1 (scFv, V domains shown)
VH: QVQLQQSGAEVKKPGSSVKVSCKASGGTFGNWTISWVRQAPGQGLEWMGGIAPTRGEATYAQKFQGRVTITTDESTSTAYMELSSLRSEDTAVYYCARETWYTSGGMDVWGQGTTVTVSS
VL: SYELTQPPSVSVAPGKTARITCGGNNIGRKSVHWYQQKPGQAPVLVVYDDSDRPSGIPERFSGSNSGNTATLTISRVEAGDEADYYCQVYDLWSSDYVFGTGTKVEIK
B10: Y2.1 (scFv, V domains shown)
VH: QVQLQQSGAEVKKPGSSVKVSCKASGGTFGNWSISWVRQAPGQGLEWMGGIVPRDGEATYAQKFQGRVTITTDESTSTAYMELSSLRSEDTAVYYCARETWYTSGGMDVWGQGTTVTVSS
VL: SYELTQPPSVSVAPGKTARITCGGNNIGRKSVHWYQQKPGQAPVLVVYDDSDRPSGIPERFSGSNSGNTATLTISRVEAGDEADYYCQVYDLWSSDYVFGTGTKVEIK
B11: Y8.10 (scFv, V domains shown)
VH: QVQLQQSGAEVKKPGSSVKVSCKASGGTFGNWSISWVRQAPGQGLEWMGGIAPGQGEATYAQKFQGRVTITTDESTSTAYMELSSLRSEDTAVYYCARETWYTSGGMDVWGQGTTVTVSS
VL: SYELTQPPSVSVAPGKTARITCGGNNIGRKSVHWYQQKPGQAPVLVVYDDSDRPSGIPERFSGSNSGNTATLTISRVEAGDEADYYCQVYDLWSSDYVFGTGTKVEIK
B12: D27LE, scFv (scFv, V domains shown)
VH: QVQLQQSGAEVKKPGSSVKVSCKASGGTFGNWSISWVRQAPGQGLEWMGGIDPSRGEATYAQKFQGRVTITTDESTSTAYMELSSLRSEDTAVYYCARETWYTSGGMDVWGQGTTVTVSS
VL: SYELTQPPSVSVAPGKTARITCGGNNIGRKSVHWYQQKPGQAPVLVVYDDSDRPSGIPERFSGSNSGNTATLTISRVEAGDEADYYCQVYDLWSSDYVFGTGTKVEIK

The first experiment addresses T1, N501Y mutant RBD (SARS-CoV-2 Alpha (B.1.1.7), RBD N501Y, N501Y). In words: BLI.
B1 registered an equilibrium dissociation constant (Kd) of 0.54 nM. In turn, B2 had a Kd below 0.001 nM. On the same count and under the same terms, under B3 stands 4.87 nM.

The next experiment concerns the target RBD of the Delta variant (SARS-CoV-2, Delta (B.1.617.2), L452R | T478K). In words: BLI.
B2: the Kd stood at 0.32 nM.

The next experiment concerns the target T1, N501Y mutant RBD. The experiment is described as follows: BLI. This is another data set of the same source.
B4 came in with a Kd of 842 nM. The molecule B5 returned a Kd of 93.5 nM. On the same count and under the same terms, under B6 stands 263 nM; under B7, 41.2 nM; under B8, 79.2 nM. The molecule B9 yielded a Kd of 102 nM. On the same count and under the same terms, under B10 stands 30.8 nM; under B11, 21.3 nM; under B12, 276 nM. Consider B3, for which the Kd came to 9.4 nM.
